Patent US7981691B2, “Two helix binders” (General Electric Company, priority 2006, dated 2011)
Positions of bridges follow the written chain, without caps; N, C: chain ends. Non-standard residues stand in square brackets, D forms with d. No end group written: not given here. Aib = CC(C)(N)C(=O)O

Tests used:
[1] = CD spectroscopy of 2-helix scaffolds (secondary structure, helicity); assay type: physicochemical; details: Circular Dichroism
Protocol: Secondary structure of different 2-helix scaffold was determined by CD analysis. All CD spectra were obtained on an JASCO J-815 CD spectropolarimeter in the wavelength range of 250-185 nm using 1 nm bandwidth, 0.5 nm resolution, 4 seconds averaging time, 3 scan per sample, 0 second delay, and a path length of 1 mm. Spectra were recorded at 20° C., unless otherwise noted, in a thermostated circular cuvette, with peptide concentrations of 15 μM in 13 mM of K2HPO4 buffer at pH8. Results are reported as mean residue ellipticity (MRW).

[2] = biological target: T1, extracellular domain of the Her2/neu antigen (Fc-Her2) (Homo sapiens, UniProt P04626); assay: SPR (BIAcore) binding of two helix peptides to immobilized Fc-Her2; details: relative binding by SPR
T1 construct: The extracellular domain of the Her2/neu antigen was obtained as a conjugate with the Fc region of human IgG; purchased R&D Systems
Protocol: Binding interactions between the binder and the Her2/neu antigen was measured in vitro using surface plasmon resonance (SPR) detection on a BIAcore™ 3000 instrument (Piscataway, N.J.). The extracellular domain of the Her2/neu antigen was obtained as a conjugate with the Fc region of human IgG (Fc-Her2) from R&D Systems and covalently attached to a CM-5 dextran-functionalized sensor chip (BIAcore™) pre-equilibrated with HBS-EP buffer (0.00M HEPES pH 7.4, 0.15M NaCl, 3 mM EDTA, 0.005% v/v surfactant P20) at 10 μL/min and subsequently activated with 1-ethyl-3-[3-dimethylaminopropyl]carbodiimide hydrochloride (EDC) and N-hydroxysuccinimide (NHS). The Fc-Her2 (5 μg/ml) in 10 mM sodium acetate (pH 5.5) was injected onto the activated sensor chip until the desired immobilization level was achieved (2 min). Residual activated groups on the sensor chip were blocked by injection of ethanolamine (1 M, pH 8.5). Any non-covalently bound conjugate was removed by repeated (n=5) washing with 2.5 M NaCl2, 50 mM NaOH.
A second flow cell on the same sensor chip was treated identically, except with no Fc-Her2 immobilization, to serve as a control surface for refractive index changes and non-specific binding interactions with the sensor chip. Prior to the kinetic study, binding of the target analyte was tested on both surfaces and a surface stability experiment was performed to ensure adequate removal of the bound analyte and regeneration of the sensor chip following treatment with 2.5 M NaCl, 50 mM NaOH. SPR sensorgrams were analyzed using the BiaEval (BIAcore) software.
The binding interactions between the generated peptide and Fc-Her2 conjugate were measured using SPR (BIAcore). To minimize mass transport limitations, a surface density of ˜3000 Rus (Response Units) Fc-Her2 was used, resulting in a maximal binding response ˜100 RU with ˜100 nM of the synthesized peptide. SPR measurements were collected at eight analyte concentrations (0-100 nM peptide) and the resulting sensorgrams were fitted to a 1:1 Langmuir binding model.

Row | Sequence | helicity / population of helix conformers (in words) [1] | binding to target molecule Her2 (in words) [2]
1 | VENKCNKEMRNAYWEIALLPNLNNQXKRAXIRSXYDDPC (VENKCNKEMRNAYWEIALLPNLNNQ[Aib]KRA[Aib]IRS[Aib]YDDPC-NH2; disulfide 5-39 (inferred)) [SEQ. ID. NO. 25] | helicity increases | unable to bind target molecule
2 | VENKCNKXMRNXYWEXALLPNLNNQQKRAFIRSLYDDPC (VENKCNK[Aib]MRN[Aib]YWE[Aib]ALLPNLNNQQKRAFIRSLYDDPC-NH2; disulfide 5-39 (inferred)) [SEQ. ID. NO. 24] | helicity increases | unable to bind target molecule
3 | VENKCNKXMRNXYWEXALLPNLNNQXKRAXIRSXYDDPC (VENKCNK[Aib]MRN[Aib]YWE[Aib]ALLPNLNNQ[Aib]KRA[Aib]IRS[Aib]YDDPC-NH2; disulfide 5-39 (inferred)) [SEQ. ID. NO. 26] | helicity increases | unable to bind target molecule
